The values that follow come from patent US20210388081A1 (Memorial Sloan Kettering, published 2021).

Assay [1] concerns the target T1, FcRL2, overexpressed on 3T3 cells (UniProt Q96LA5 20-508, limits assumed).
T1 construct: whole, on cells
T1 sequence (looked up): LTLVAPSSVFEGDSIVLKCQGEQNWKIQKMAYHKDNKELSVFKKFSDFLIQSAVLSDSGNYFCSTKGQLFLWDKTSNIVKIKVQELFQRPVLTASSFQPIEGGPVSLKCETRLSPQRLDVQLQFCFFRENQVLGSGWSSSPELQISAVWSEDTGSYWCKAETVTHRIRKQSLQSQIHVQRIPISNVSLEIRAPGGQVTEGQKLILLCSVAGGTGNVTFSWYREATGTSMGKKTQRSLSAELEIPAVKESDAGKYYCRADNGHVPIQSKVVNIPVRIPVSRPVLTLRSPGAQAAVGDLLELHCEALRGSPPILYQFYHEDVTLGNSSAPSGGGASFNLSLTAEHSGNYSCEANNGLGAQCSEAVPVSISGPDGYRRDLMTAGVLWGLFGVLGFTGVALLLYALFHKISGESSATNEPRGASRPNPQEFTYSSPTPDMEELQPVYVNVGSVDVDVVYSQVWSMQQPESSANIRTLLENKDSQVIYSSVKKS
Kind of assay: phage clone on 3T3-FcRL2 cells.

Assay [2] concerns the target SLAMF9 protein (UniProt Q96A28 19-236, limits assumed). Nature of the assay: phage clone on SLAMF9 protein.
Assay [3] concerns the target T2, FcRL3, overexpressed on 3T3 cells (UniProt Q96P31 18-734, limits assumed).
T2 construct: whole, on cells
T2 sequence (looked up): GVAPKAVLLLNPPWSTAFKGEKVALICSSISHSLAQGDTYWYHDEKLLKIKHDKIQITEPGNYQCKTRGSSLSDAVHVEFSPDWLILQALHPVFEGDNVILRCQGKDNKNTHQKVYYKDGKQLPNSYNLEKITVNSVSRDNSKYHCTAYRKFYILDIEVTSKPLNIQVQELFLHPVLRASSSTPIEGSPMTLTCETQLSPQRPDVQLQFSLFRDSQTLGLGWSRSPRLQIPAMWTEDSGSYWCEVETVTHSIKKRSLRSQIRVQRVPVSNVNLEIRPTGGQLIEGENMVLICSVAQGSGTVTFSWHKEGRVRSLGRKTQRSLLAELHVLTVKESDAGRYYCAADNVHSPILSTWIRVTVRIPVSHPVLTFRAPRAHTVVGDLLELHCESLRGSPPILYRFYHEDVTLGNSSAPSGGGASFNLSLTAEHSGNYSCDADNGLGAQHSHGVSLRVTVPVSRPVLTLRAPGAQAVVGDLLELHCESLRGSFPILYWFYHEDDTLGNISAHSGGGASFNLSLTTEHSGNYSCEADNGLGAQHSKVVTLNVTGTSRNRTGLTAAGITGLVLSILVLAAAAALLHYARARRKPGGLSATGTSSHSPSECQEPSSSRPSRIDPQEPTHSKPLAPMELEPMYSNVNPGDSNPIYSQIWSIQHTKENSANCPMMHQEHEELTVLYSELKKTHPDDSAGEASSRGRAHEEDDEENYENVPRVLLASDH
Nature of the assay: phage clone on 3T3-FcRL3 cells.

Assay [4] has as its target T3, Fc Receptor-like 5 (FcRL5), full length, overexpressed on 3T3 or Raji cells (human, UniProt Q96RD9 16-977).
T3 construct: also called 3T3-FcRL5
T3 sequence: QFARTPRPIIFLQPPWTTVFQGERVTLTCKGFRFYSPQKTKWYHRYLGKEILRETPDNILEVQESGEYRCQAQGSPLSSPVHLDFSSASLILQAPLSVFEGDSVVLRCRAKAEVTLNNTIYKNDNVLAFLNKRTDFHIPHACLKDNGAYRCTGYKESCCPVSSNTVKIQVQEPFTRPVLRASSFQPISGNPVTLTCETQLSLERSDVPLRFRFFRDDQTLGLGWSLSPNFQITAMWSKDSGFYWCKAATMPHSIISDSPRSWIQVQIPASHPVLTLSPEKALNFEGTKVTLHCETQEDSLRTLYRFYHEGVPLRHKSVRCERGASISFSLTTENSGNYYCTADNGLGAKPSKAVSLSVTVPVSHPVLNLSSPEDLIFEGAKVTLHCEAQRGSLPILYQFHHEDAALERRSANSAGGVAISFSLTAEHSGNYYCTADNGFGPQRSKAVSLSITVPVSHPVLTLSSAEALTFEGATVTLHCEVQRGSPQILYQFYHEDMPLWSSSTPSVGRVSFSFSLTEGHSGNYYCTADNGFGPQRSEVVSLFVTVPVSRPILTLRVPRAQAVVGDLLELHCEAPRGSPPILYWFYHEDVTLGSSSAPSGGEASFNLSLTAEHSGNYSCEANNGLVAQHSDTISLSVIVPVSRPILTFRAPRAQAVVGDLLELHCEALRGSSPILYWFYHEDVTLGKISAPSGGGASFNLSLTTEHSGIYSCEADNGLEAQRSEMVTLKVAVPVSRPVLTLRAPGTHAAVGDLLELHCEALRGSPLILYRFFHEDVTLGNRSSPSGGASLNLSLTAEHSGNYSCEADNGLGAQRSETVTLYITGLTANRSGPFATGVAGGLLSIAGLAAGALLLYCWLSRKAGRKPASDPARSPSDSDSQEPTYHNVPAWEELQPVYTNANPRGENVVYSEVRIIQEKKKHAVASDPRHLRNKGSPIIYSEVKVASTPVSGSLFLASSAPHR
Kind of assay: phage clone screening on cells. A digest of the protocol: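 scFv phage clones were incubated with live 3T3 cells overexpressing full-length FcRL5, then detected with mouse anti-M13 mAb and PE-anti-mouse Ig by flow cytometry. 3T3 cells expressing FcRL1, 2, 3, 4 or 6 served as negative-control targets.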

The target of assay [5] is T4, FcRL1, overexpressed on 3T3 cells (UniProt Q96LA6 17-429, limits assumed).
T4 construct: whole, on cells
T4 sequence (looked up): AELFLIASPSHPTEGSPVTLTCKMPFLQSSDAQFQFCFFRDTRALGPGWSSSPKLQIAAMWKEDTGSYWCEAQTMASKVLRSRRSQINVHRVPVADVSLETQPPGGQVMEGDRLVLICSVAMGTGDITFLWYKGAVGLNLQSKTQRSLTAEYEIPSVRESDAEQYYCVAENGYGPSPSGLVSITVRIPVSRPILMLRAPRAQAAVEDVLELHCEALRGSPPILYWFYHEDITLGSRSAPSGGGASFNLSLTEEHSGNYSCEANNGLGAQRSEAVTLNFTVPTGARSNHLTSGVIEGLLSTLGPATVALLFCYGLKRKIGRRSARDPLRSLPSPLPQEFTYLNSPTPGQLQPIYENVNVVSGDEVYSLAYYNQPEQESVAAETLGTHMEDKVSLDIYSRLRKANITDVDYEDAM
Nature of the assay: phage clone on 3T3-FcRL1 cells.

Sequence of SLAMF9 protein (Q96A28 19-236 limits assumed): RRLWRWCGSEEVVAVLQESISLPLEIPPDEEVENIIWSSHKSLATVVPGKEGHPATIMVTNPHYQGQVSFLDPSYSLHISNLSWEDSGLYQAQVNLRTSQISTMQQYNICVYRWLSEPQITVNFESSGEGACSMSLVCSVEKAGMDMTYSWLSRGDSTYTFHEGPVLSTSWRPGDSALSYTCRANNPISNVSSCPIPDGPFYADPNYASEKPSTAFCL

B1: ET200-124 (scFv)
scFv: SYVLTQPPSVSVAPGKTARISCGGNDIGSKSVFWYQQRPGQAPVLVVYDDSDRPSGLPERFSGFNSGNTATLTISRVEAGDEADYYCQVWDSSSDHYVFGTGTKVTVLGSRGGGGSGGGGSGGGGSLEMAQVQLVESGGGLVQPGRSLRLSCAASGFTFDDYAMHWVRQAPGKGLEWVSGISWNSGSIGYADSVKGRFTISRDNAKNSLYLQMNSLRAEDTALYYCAKDITYGSGSYGAFDIWGQGTMVTVSSTSGQAGQHHHHHHGAYPYDVPDYAS
notes: screened as phage clone; entry is VL-linker-VH-His tag-HA tag
For B1, the binding result in assay [1] is “no binding”; in assay [2], “no binding”; in assay [3], “no binding”; in assay [4], “binds”; in assay [5], “no binding”.

B2: ET200-008 (scFv)
scFv: QSALTQPASVSGSPGQSITISCTGTSSDVGGYNYVSWYQQHPGKAPKLMIYDVSNRPSGVSNRFSGSKSGNTASLTISGLQAEDEADYYCSSYTSSSTSKVFGGGTKLTVLGSRGGGGSGGGGSGGGGSLEMAEVQLVESGGGVVRPGGSLRLSCAASGFTFGDYGMSWVRQAPGKGLEWVSGINWNGGSTGYADSVKGRFTISRDNAKNSLYLQMNSLRAEDTAVYYCARSKYNFHVYYDYWGQGTLVTVSSTSGQAGQHHHHHHGAYPYDVPDYAS
notes: as for B1
Take B2: the binding result is given as “no binding” in assay [1]; “no binding” in assay [2]; “no binding” in assay [3]; “binds” in assay [4]; “no binding” in assay [5].

B3: ET200-123 (scFv)
scFv: QAVLTQPPSASGTPGQRVTISCSGSSSNIGSNTVNWYQQLPGTAPKLLMYNNDQRPSGVPDRFSGSKSGTSASLAISGLQSEDEADYYCAAWDDSLNGYVFGPGTKVTVLGSRGGGGSGGGGSGGGGSLEMAQVQLVESGAEVKKPGASVKVSCKASGYTFTSYGISWVRQAPGQGLEWMGWISAYNGNTNYAQKLQGRVTMTTDTSTSTAYMELRSLRSDDTAVYYCARDLSRGANPHYYYYYGMDVWGQGTTVTVSSTSGQAGQHHHHHHGAYPYDVPDYAS
notes: as for B1
In the case of B3, the binding result in assay [1] was “no binding”; in assay [2], “no binding”; in assay [3], “no binding”; in assay [4] it was “binds”; in assay [5], “no binding”.

B4: ET200-005 (scFv)
scFv: QPVLTQPPSVSVVPGKTARITCGGKNIGSKSVHWYQQKPGQAPVVVIHYDSDRPSGIPERFSGSNSGNTATLTISRVEAGDEADYYCQVWDSSSDHPYVFGTGTKVTVLGSRGGGGSGGGGSGGGGSLEMAQVQLVQSGAEVKKPGASVKVSCKASGYTFTNYGISWVRQAPGQGLEWMGWISAYNGNTNYAHKLQGRVTMTTDTSTSTANMELRSLRPDDTAVYYCARSYFGSHDYWGQGTLVTVSSTSGQAGQHHHHHHGAYPYDVPDYAS
notes: as for B1
Regarding B4, the binding result is recorded as “no binding” in assay [1]; “no binding” in assay [2]; “no binding” in assay [3]; “binds” in assay [4]; “no binding” in assay [5].

B5: ET200-118 (scFv)
scFv: QAVLTQPASVSGSPGQSITISCTGTSSDVGGYNYVSWYQQHPGKAPKLMIYEVSNRPSGVSNRFSGSKSGNTASLTISGLQAEDEADYYCSSYTSSSTPYVFGAGTKVTVLGSRGGGGSGGGGSGGGGSLEMAEVQLVESGGGLVQPGRSLRLSCAASGFTFDDYAMHWVRQAPGKGLEWVSGISWNSGSIGYADSVKGRFTISRDNAKNSLYLQMNSLRAEDTALYYCAKARWTAVASDHHFDYWGQGTLVTVSSTSGQAGQHHHHHHGAYPYDVPDYAS
notes: as for B1
Take B5: the binding result in assay [1] was “no binding”; in assay [2], “no binding”; in assay [3] it was “no binding”; in assay [4] it was “binds”; in assay [5], “no binding”.

B6: ET200-121 (scFv)
scFv: QSVLTQPPSVSGAPGQRVTVSCTGSRSNIGAGYDVHWYQQLPGTAPKLLIYGNSNRPPGVPDRFSGSKSGTSASLVITGLQAEDAADYYCQSYDNTVRESPYVFGTGTKVTVLGSRGGGGSGGGGSGGGGSLEMAEVQLVQSGAEVKKPGASVKVSCKVSGYTLTELSMHWVRQAPGKGLEWMGGFDPEDGETIYAQKFQGRVTMTEDTSTDTAYMELSSLRSEDTAVYYCATESNLVSRHYYYYGMDVWGQGTTVTVSSTSGQAGQHHHHHHGAYPYDVPDYAS
notes: as for B1
Regarding B6, the binding result was “no binding” in assay [1]; “no binding” in assay [2]; “no binding” in assay [3]; “binds” in assay [4]; “no binding” in assay [5].

B7: ET200-125 (scFv)
scFv: NFMLTQPHAVSESPGKTVTISCTRSSGSIASNYVQWYQQRPGSSPRTVIYEDNQRPSGVPGRFSGSIDSSSNSASLTISGLKTEDEADYYCQSYDSTSVLFGGGTKLTVLGSRGGGGSGGGGSGGGGSLEMAEVQLVQSGAEVKKPGSSVKVSCKASGGTFSSNSLSWVRQAPGQGLEWMGRIFPILGITNYAQKFQGRVTITADKSTSTAYMELSSLRSEDTAVYYCARGNYQWYDAFDIWGQGTMVTVSSTSGQAGQHHHHHHGAYPYDVPDYAS
notes: as for B1
B7: the binding result in assay [1] is given as “no binding”; in assay [2], “no binding”; in assay [3] it was “no binding”; in assay [4] it was “binds”; in assay [5] it was “no binding”.
